Legend:
Assay in all cases: flow cytometry, IgG on cells expressing the mutant
human CD33 variant K52T = human CD33 variant K52T (human, UniProt P20138 18-364)
human CD33 variant R122G = human CD33 variant R122G (human, UniProt P20138 18-364)
human CD33 variant I47E = human CD33 variant I47E (human, UniProt P20138 18-364)
human CD33 variant R122I = human CD33 variant R122I (human, UniProt P20138 18-364)
human CD33 variant K52I = human CD33 variant K52I (human, UniProt P20138 18-364)
human CD33 variant I47Q = human CD33 variant I47Q (human, UniProt P20138 18-364)
human CD33 variant Y50Q = human CD33 variant Y50Q (human, UniProt P20138 18-364)
human CD33 variant P48G = human CD33 variant P48G (human, UniProt P20138 18-364)
human CD33 variant P48G, sequence (P20138 18-364 P48G limits assumed): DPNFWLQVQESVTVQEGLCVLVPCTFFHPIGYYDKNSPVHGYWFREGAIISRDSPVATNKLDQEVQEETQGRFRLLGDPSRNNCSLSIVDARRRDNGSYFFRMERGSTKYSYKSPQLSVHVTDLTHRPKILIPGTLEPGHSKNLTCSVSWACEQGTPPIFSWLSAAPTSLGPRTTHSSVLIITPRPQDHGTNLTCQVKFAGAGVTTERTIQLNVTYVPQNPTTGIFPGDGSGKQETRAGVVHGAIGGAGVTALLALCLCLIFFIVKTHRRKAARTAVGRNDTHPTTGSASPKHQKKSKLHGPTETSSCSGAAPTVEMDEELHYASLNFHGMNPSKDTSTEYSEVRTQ

human CD33 variant Y50R = human CD33 variant Y50R (human, UniProt P20138 18-364)
human CD33 variant Y50R, sequence (P20138 18-364 Y50R limits assumed): as the sequence (P20138 18-364 P48G limits assumed) above, with G31P, Y33R counted along it

human CD33 variant Y50G = human CD33 variant Y50G (human, UniProt P20138 18-364)
human CD33 variant Y50G, sequence (P20138 18-364 Y50G limits assumed): as the sequence (P20138 18-364 P48G limits assumed) above, with G31P, Y33G counted along it

human CD33 variant P48N = human CD33 variant P48N (human, UniProt P20138 18-364)
human CD33 variant P48M = human CD33 variant P48M (human, UniProt P20138 18-364)
human CD33 variant P48M, sequence (P20138 18-364 P48M limits assumed): as the sequence (P20138 18-364 P48G limits assumed) above, with G31M counted along it

human CD33 variant P48F = human CD33 variant P48F (human, UniProt P20138 18-364)
human CD33 variant Y127E = human CD33 variant Y127E (human, UniProt P20138 18-364)
human CD33 variant K52F = human CD33 variant K52F (human, UniProt P20138 18-364)
human CD33 variant K52F, sequence (P20138 18-364 K52F limits assumed): as the sequence (P20138 18-364 P48G limits assumed) above, with G31P, K35F counted along it

human CD33 variant R122E = human CD33 variant R122E (human, UniProt P20138 18-364)
human CD33 variant R122E, sequence (P20138 18-364 R122E limits assumed): as the sequence (P20138 18-364 P48G limits assumed) above, with G31P, R105E counted along it

human CD33 variant Y49Q = human CD33 variant Y49Q (human, UniProt P20138 18-364)
human CD33 variant Y49Q, sequence (P20138 18-364 Y49Q limits assumed): as the sequence (P20138 18-364 P48G limits assumed) above, with G31P, Y32Q counted along it

human CD33 variant I47N = human CD33 variant I47N (human, UniProt P20138 18-364)
human CD33 variant I47N, sequence (P20138 18-364 I47N limits assumed): as the sequence (P20138 18-364 P48G limits assumed) above, with I30N, G31P counted along it

human CD33 variant Y50I = human CD33 variant Y50I (human, UniProt P20138 18-364)
human CD33 variant Y50L = human CD33 variant Y50L (human, UniProt P20138 18-364)
human CD33 variant D51K = human CD33 variant D51K (human, UniProt P20138 18-364)
human CD33 variant R122T = human CD33 variant R122T (human, UniProt P20138 18-364)
human CD33 variant Y49P = human CD33 variant Y49P (human, UniProt P20138 18-364)
human CD33 variant Y49P, sequence (P20138 18-364 Y49P limits assumed): as the sequence (P20138 18-364 P48G limits assumed) above, with G31P, Y32P counted along it

human CD33 variant R122F = human CD33 variant R122F (human, UniProt P20138 18-364)
human CD33 variant R122F, sequence (P20138 18-364 R122F limits assumed): as the sequence (P20138 18-364 P48G limits assumed) above, with G31P, R105F counted along it

human CD33 variant I47R = human CD33 variant I47R (human, UniProt P20138 18-364)
human CD33 variant M120I = human CD33 variant M120I (human, UniProt P20138 18-364)
human CD33 variant Y49D = human CD33 variant Y49D (human, UniProt P20138 18-364)
human CD33 variant Y49D, sequence (P20138 18-364 Y49D limits assumed): as the sequence (P20138 18-364 P48G limits assumed) above, with G31P, Y32D counted along it

human CD33 variant Y50P = human CD33 variant Y50P (human, UniProt P20138 18-364)
human CD33 variant Y50P, sequence (P20138 18-364 Y50P limits assumed): as the sequence (P20138 18-364 P48G limits assumed) above, with G31P, Y33P counted along it

human CD33 variant K52H = human CD33 variant K52H (human, UniProt P20138 18-364)
human CD33 variant K52Y = human CD33 variant K52Y (human, UniProt P20138 18-364)
human CD33 variant K52D = human CD33 variant K52D (human, UniProt P20138 18-364)
human CD33 variant Y49G = human CD33 variant Y49G (human, UniProt P20138 18-364)
human CD33 variant Y49G, sequence (P20138 18-364 Y49G limits assumed): as the sequence (P20138 18-364 P48G limits assumed) above, with G31P, Y32G counted along it

human CD33 variant P48K = human CD33 variant P48K (human, UniProt P20138 18-364)
human CD33 variant V56R = human CD33 variant V56R (human, UniProt P20138 18-364)
human CD33 variant I47Y = human CD33 variant I47Y (human, UniProt P20138 18-364)
human CD33 variant Y129S = human CD33 variant Y129S (human, UniProt P20138 18-364)

human CD33 variant I47E, sequence (P20138 18-364 I47E limits assumed): as the sequence (P20138 18-364 P48G limits assumed) above, with I30E, G31P counted along it

Binder | Mean % WT Binding (human CD33 variant K52T) | Mean % WT Binding (human CD33 variant R122G) | Mean % WT Binding (human CD33 variant I47E) | Mean % WT Binding (human CD33 variant R122I) | Mean % WT Binding (human CD33 variant K52I) | Mean % WT Binding (human CD33 variant I47Q) | Mean % WT Binding (human CD33 variant Y50Q) | Mean % WT Binding (human CD33 variant P48G) | Mean % WT Binding (human CD33 variant Y50R) | Mean % WT Binding (human CD33 variant Y50G) | Mean % WT Binding (human CD33 variant P48N) | Mean % WT Binding (human CD33 variant P48M) | Mean % WT Binding (human CD33 variant P48F) | Mean % WT Binding (human CD33 variant Y127E) | Mean % WT Binding (human CD33 variant K52F) | Mean % WT Binding (human CD33 variant R122E) | Mean % WT Binding (human CD33 variant Y49Q) | Mean % WT Binding (human CD33 variant I47N) | Mean % WT Binding (human CD33 variant Y50I) | Mean % WT Binding (human CD33 variant Y50L) | other results
Refmab #3 (antibody, human IgG1, V domains shown, Tested in IgG format; human IgG1 Fc silent (PG-LALA)) VH: QVQLVQSGAEVKKPGSSVKVSCKASGYTFTDYNMHWVRQAPGQGLEWIGYIYPYNGGTGYNQKFKSKATITADESTNTAYMELSSLRSEDTAVYYCARGRPAMDYWGQGTLVTVSS VL: DIQMTQSPSSLSASVGDRVTITCRASESVDNYGISFMNWFQQKPGKAPKLLIYAASNQGSGVPSRFSGSGSGTDFTLTISSLQPDDFATYYCQQSKEVPWTFGQGTKVEIK | 103 % of WT | 114 % of WT | 109 % of WT | 112 % of WT | 88.7 % of WT | 106 % of WT | 95.4 % of WT | 108 % of WT | 83 % of WT | 91.2 % of WT | 98.8 % of WT | 106 % of WT | 100 % of WT | 21.5 % of WT | 6 % of WT | 101 % of WT | 102 % of WT | 91.6 % of WT | 92.8 % of WT | 106 % of WT | Mean % WT Binding (human CD33 variant D51K): 88.9 % of WT; Mean % WT Binding (human CD33 variant R122T): 103 % of WT; Mean % WT Binding (human CD33 variant Y49P): 92.1 % of WT; Mean % WT Binding (human CD33 variant R122F): 106 % of WT; Mean % WT Binding (human CD33 variant I47R): 83.2 % of WT; Mean % WT Binding (human CD33 variant M120I): 81.6 % of WT; Mean % WT Binding (human CD33 variant Y49D): 94.4 % of WT; Mean % WT Binding (human CD33 variant Y50P): 103 % of WT; Mean % WT Binding (human CD33 variant K52H): 101 % of WT; Mean % WT Binding (human CD33 variant K52Y): 41.7 % of WT; Mean % WT Binding (human CD33 variant K52D): 101 % of WT; Mean % WT Binding (human CD33 variant Y49G): 108 % of WT; Mean % WT Binding (human CD33 variant P48K): 67.3 % of WT; Mean % WT Binding (human CD33 variant V56R): 97.7 % of WT; Mean % WT Binding (human CD33 variant I47Y): 109 % of WT
Refmab #4 (antibody, human IgG1, V domains shown, Tested in IgG format; human IgG1 Fc silent (PG-LALA)) VH: QVQLVQSGAEVKKPGESVKVSCKASGYTFTNYGMNWVKQAPGQGLEWMGWINTYTGEPTYADKFQGRVTMTTDTSTSTAYMEIRNLGGDDTAVYYCARWSWSDGYYVYFDYWGQGTSVTVSS VL: DIVMTQSPDSLTVSLGERTTINCKSSQSVLDSSTNKNSLAWYQQKPGQPPKLLLSWASTRESGIPDRFSGSGSGTDFTLTIDSPQPEDSATYYCQQSAHFPITFGQGTRLEIK | 83.5 % of WT | 91.3 % of WT | 54.8 % of WT | 85.8 % of WT | 61.9 % of WT | 80.1 % of WT | 3.2 % of WT | 0.4 % of WT | 0.3 % of WT | 4 % of WT | 3.8 % of WT | 1.3 % of WT | 0.3 % of WT | 104 % of WT | 3.5 % of WT | 79.2 % of WT | 91.9 % of WT | 74.8 % of WT | 4.5 % of WT | 1.9 % of WT | Mean % WT Binding (human CD33 variant D51K): 42 % of WT; Mean % WT Binding (human CD33 variant Y129S): 107 % of WT; Mean % WT Binding (human CD33 variant R122T): 93.2 % of WT; Mean % WT Binding (human CD33 variant Y49P): 1.2 % of WT; Mean % WT Binding (human CD33 variant R122F): 58.1 % of WT; Mean % WT Binding (human CD33 variant I47R): 66.2 % of WT; Mean % WT Binding (human CD33 variant M120I): 101 % of WT; Mean % WT Binding (human CD33 variant Y49D): 2.5 % of WT; Mean % WT Binding (human CD33 variant Y50P): 85.6 % of WT; Mean % WT Binding (human CD33 variant K52H): 75.1 % of WT; Mean % WT Binding (human CD33 variant K52Y): 20.7 % of WT; Mean % WT Binding (human CD33 variant K52D): 9.4 % of WT; Mean % WT Binding (human CD33 variant Y49G): 54.9 % of WT; Mean % WT Binding (human CD33 variant P48K): 0 % of WT; Mean % WT Binding (human CD33 variant V56R): 99.4 % of WT; Mean % WT Binding (human CD33 variant I47Y): 96 % of WT
